Laboratory results from US20160009813A1 (Memorial Sloan Kettering, published 2016).

Biological target: T1, human CD19 (human, UniProt P15391 20-556)
T1 sequence (looked up): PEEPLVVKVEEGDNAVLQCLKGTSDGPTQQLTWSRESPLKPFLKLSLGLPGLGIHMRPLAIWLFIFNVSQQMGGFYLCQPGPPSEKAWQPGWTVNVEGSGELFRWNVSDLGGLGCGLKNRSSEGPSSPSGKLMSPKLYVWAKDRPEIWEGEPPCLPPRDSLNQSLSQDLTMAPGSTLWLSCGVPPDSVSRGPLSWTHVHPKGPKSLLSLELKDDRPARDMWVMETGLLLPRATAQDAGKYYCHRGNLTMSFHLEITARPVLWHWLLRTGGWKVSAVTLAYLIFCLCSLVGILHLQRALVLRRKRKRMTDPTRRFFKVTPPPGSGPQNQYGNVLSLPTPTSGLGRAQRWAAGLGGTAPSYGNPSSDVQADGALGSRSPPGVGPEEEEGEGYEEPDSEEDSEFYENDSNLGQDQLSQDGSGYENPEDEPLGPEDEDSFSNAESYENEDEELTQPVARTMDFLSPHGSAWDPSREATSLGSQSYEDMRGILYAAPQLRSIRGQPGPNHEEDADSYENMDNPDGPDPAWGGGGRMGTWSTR
Experiment: cell-based or functional assay

B1: 1928z chimeric antigen receptor (CD19-specific second-generation CAR: SJ25C1-derived scFv, CD28, CD3 zeta) (receptor)
chain: EVKLQQSGAELVRPGSSVKISCKASGYAFSSYWMNWVKQRPGQGLEWIGQIYPGDGDTNYNGKFKGQATLTADKSSSTAYMQLSGLTSEDSAVYFCARKTISSVVDFYFDYWGQGTTVTVSSGGGGSGGGGSGGGGSDIELTQSPKFMSTSVGDRVSVTCKASQNVGTNVAWYQQKPGQSPKPLIYSATYRNSGVPDRFTGSGSGTDFTLTITNVQSKDLADYFCQQYNRYPYTSGGGTKLEIKRAAAIEVMYPPPYLDNEKSNGTIIHVKGKHLCPSPLFPGPSKPFWVLVVVGGVLACYSLLVTVAFIIFWVRSKRSRLLHSDYMNMTPRRPGPTRKHYQPYAPPRDFAAYRSRVKFSRSAEPPAYQQGQNQLYNELNLGRREEYDVLDKRRGRDPEMGGKPRRKNPQEGLYNELQKDKMAEAYSEIGMKGERRRGKGHDGLYQGLSTATKDTYDALHMQALPPR
- expansion after one stimulation with 3T3-CD19 cells (mean): 20 fold
- expansion after three weekly stimulations with 3T3-CD19 cells: ~1000 fold
